From article doi:10.1101/2023.06.07.544024 (bioRxiv, 2023)

Molecular target: FtsH (E. coli, UniProt P0AAI3 1-644)
Assay: cross-linking

FtsH, sequence (P0AAI3 whole entry): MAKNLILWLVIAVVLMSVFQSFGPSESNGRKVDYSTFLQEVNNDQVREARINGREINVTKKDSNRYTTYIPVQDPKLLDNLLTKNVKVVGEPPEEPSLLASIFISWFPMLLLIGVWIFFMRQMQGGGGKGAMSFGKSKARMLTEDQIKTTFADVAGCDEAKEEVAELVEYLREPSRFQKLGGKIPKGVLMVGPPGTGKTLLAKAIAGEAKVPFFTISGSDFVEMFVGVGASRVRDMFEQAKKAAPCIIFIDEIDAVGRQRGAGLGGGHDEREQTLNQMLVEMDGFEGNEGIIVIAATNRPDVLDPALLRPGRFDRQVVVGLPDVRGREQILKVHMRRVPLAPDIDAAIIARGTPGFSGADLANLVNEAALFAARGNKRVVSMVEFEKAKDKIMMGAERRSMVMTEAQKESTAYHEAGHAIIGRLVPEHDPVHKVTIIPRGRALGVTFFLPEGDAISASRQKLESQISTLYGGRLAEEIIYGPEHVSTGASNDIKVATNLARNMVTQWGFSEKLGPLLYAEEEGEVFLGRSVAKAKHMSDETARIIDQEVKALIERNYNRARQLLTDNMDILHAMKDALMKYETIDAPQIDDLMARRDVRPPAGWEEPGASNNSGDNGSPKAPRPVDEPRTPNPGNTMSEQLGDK

| binding result | Binder |
| --- | --- |
| binds | HflC (natural protein, E. coli) MRKSVIAIIIIVLVVLYMSVFVVKEGERGITLRFGKVLRDDDNKPLVYEPGLHFKIPFIETVKMLDARIQTMDNQADRFVTKEKKDLIVDSYIKWRISDFSRYYLATGGGDISQAEVLLKRKFSDRLRSEIGRLDVKDIVTDSRGRLTLEVRDALNSGSAGTEDEVTTPAADNAIAEAAERVTAETKGKVPVINPNSMAALGIEVVDVRIKQINLPTEVSEAIYNRMRAEREAVARRHRSQGQEEAEKLRATADYEVTRTLAEAERQGRIMRGEGDAEAAKLFADAFSKDPDFYAFIRSLRAYENSFSGNQDVMVMSPDSDFFRYMKTPTSATR |
| binds | HflK (natural protein, E. coli) MAWNQPGNNGQDRDPWGSSKPGGNSEGNGNKGGRDQGPPDLDDIFRKLSKKLGGLGGGKGTGSGGGSSSQGPRPQLGGRVVTIAAAAIVIIWAASGFYTIKEAERGVVTRFGKFSHLVEPGLNWKPTFIDEVKPVNVEAVRELAASGVMLTSDENVVRVEMNVQYRVTNPEKYLYSVTSPDDSLRQATDSALRGVIGKYTMDRILTEGRTVIRSDTQRELEETIRPYDMGITLLDVNFQAARPPEEVKAAFDDAIAARENEQQYIREAEAYTNEVQPRANGQAQRILEEARAYKAQTILEAQGEVARFAKLLPEYKAAPEITRERLYIETMEKVLGNTRKVLVNDKGGNLMVLPLDQMLKGGNAPAAKSDNGASNLLRLPPASSSTTSGASNTSSTSQGDIMDQRRANAQRNDYQRQGE |
